Measurements as given in paper PMC11032371 (Cell Death Discovery, 2024).
Blank lines part the entries; values can stand above or below the binder they belong to.

Key:
[1] = biological target: the molecule itself; assay: SEC; analytical size exclusion, Superose 12 10/300; 50 mM HEPES pH 8.5, 150 mM NaCl, 1 mM DTT, 0.5% Triton X-100
M1-diUb [2] = biological target: T1, M1-diUb (UniProt P0CG48 1-76; P0CG48 1-76); assay: SPR; Biacore S200; TF-N4BP1 fragment amine-coupled to a CM5 chip, mono- and diUb flowed over at 30 μl/min; HBS-P+ (10 mM HEPES pH 7.4, 150 mM NaCl, 0.05% Tween 20), 25 °C; KD from plateau levels; settings: both partners purified
T1 construct: ubiquitin, distal unit of M1-linked (linear) diUb; ubiquitin, proximal unit of M1-linked (linear) diUb; also called M1-linked diUb; linear diUb

monoUb [3] = biological target: T2, monoUb (UniProt P0CG48 1-76); assay: as above; settings: both partners purified
T2 construct: ubiquitin; 15N-labelled in some NMR titrations; also called ubiquitin

M1-diUb [4] = biological target: T1, M1-diUb; assay: ITC; 293 K; 50 mM HEPES pH 7.4, 50 mM NaCl, 0.5 mM TCEP; cell 50–100 μM, syringe usually 10-fold; 20 injections of 2 μl; averages of at least two experiments; which partner was in the syringe not stated; settings: both partners purified
monoUb [5] = biological target: T2, monoUb; assay: as above; settings: both partners purified

- Kd (M1-diUb [2]): 0.43 µM
- Kd (monoUb [3]): 84.9 µM
B2: TF-N4BP1 (613–893) (domain or fragment, mouse, UniProt Q6A037 613-893, looked up)
chain: ADLKHIVIDGSNVAITHGLKKFFSCRGIAIAVEYFWKLGNRNITVFVPQWRTRRDPNITEQHFLTQLQELGILSLTPARMVFGERIASHDDRFLLHLADKTGGIIVTNDNFREFVTESVSWREIITKRLLQYTFVGDIFMVPDDPLGRNGPRLEEFLRKEAFLRHMQPLLNALPSVGTFDPGFRSPSTQVANNSHQPPPRIQTSSSPWLPQQSHFTALATLPSMQQNPPLPAQRSSAETSELREALLKIFPDSEQKLKIDQILAAHPYMKDLNALSALVLD
notes: also called dimeric N4BP1

- dH (M1-diUb [4]): -5.3 kcal/mol
- stoichiometry N (M1-diUb [4]): 2.16
- Kd (monoUb [5]): 27.5 ± 5.6 µM
- dH (monoUb [5]): -5.2 kcal/mol
- stoichiometry N (monoUb [5]): 0.915
B4: N4BP1 (850–893) (domain or fragment, mouse, UniProt Q6A037 850-893, looked up)
chain: ETSELREALLKIFPDSEQKLKIDQILAAHPYMKDLNALSALVLD
notes: His-tag removed with 3C protease for ITC and NMR; 15N- or 15N/13C-labelled for NMR; also called isolated CUE domain; N4BP1 CUE domain; not shown: His-tag, N-terminal, cleaved
- binding result [1]: binds

The remaining lines, values behind:

B1: N4BP1 (613-774), from pCold-I, His-tagged (domain or fragment, mouse, UniProt Q6A037 613-774, looked up)
chain: ADLKHIVIDGSNVAITHGLKKFFSCRGIAIAVEYFWKLGNRNITVFVPQWRTRRDPNITEQHFLTQLQELGILSLTPARMVFGERIASHDDRFLLHLADKTGGIIVTNDNFREFVTESVSWREIITKRLLQYTFVGDIFMVPDDPLGRNGPRLEEFLRKEAF
notes: N4BP1, mouse, RNase domain, residues 613-774; source: E. coli BL21, purified
- binding result [1]: binds

B3: N4BP1 (613–893), from pCold-I, His-tagged (domain or fragment, mouse, UniProt Q6A037 613-893, looked up)
chain: B2 chain
notes: source: E. coli BL21, purified
- binding result [1]: binds
